Results: patent US20170115280

Molecular target: reconstituted nascent HDL (rHDL) particle made with isolated human apoA-I (UniProt P02647)
Sequence (P02647 25-267): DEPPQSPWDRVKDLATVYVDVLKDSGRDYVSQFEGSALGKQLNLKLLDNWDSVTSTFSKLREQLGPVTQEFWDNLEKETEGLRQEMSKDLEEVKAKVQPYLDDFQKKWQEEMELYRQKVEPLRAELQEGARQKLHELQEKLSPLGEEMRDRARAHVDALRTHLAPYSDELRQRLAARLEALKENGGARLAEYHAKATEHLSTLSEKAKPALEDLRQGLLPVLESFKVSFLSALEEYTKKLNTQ

Substance | stability of arylesterase activity at 37° C. in the presence of HDL | rate of inactivation of PON1 (arylesterase activity) with EDTA and β-mercaptoethanol in the presence of rHDL
rPON1 Y294K mutant | the rate of Y293K loss in activity is faster than either Y294K or WT PON1, and comparison of Y293K vs. Y294K shows significant difference as well | –
rPON1 Y293K mutant | the Y293K PON1 mutant shows the fastest rate of inactivation | –
rPON1 pan K mutant (Leu9→Lys9, Tyr185→Lys185 and Tyr293→Lys293) with C-terminal His8 tag | – | no protective effects were observed when the pan K rPON1 mutant was incubated with either rHDL or detergent
recombinant paraoxonase 1 (PON1) variant G3C9, His-tagged (rPON1 WT) | when HDL is present, WT PON1 is quite stable at 37 °C | A very slow inactivation of WT rPON1 was observed in the presence of rHDL
